Starred links: 1 amine or outer side, 2 acyl side, 3 side chain; linkers in the order of their positions; H or OH if unused. Non-standard residues stand in square brackets, D forms with d. *: point of attachment. dBip = N[C@H](Cc1ccc(-c2ccccc2)cc1)C(=O)O; Oic = O=C(O)[C@@H]1C[C@@H]2CCCC[C@@H]2N1; Phe(4-I) = N[C@@H](Cc1ccc(I)cc1)C(=O)O; γGlu = O=C(O)[C@H](CCC(=O)[*:2])N[*:1]; Tridecanoyl = CCCCCCCCCCCCC(=O)*; hArg = N=C(N)NCCCC[C@H](N)C(=O)O; NMeL = CN[C@@H](CC(C)C)C(=O)O; Tle = CC(C)(C)[C@H](N)C(=O)O; AEEA = NCCOCCOCC(=O)O; BLeu = β-leucine; βAla = NCCC(=O)O
T1: rat APJ receptor (rat, UniProt Q9JHG3 1-377)
T1 sequence (looked up): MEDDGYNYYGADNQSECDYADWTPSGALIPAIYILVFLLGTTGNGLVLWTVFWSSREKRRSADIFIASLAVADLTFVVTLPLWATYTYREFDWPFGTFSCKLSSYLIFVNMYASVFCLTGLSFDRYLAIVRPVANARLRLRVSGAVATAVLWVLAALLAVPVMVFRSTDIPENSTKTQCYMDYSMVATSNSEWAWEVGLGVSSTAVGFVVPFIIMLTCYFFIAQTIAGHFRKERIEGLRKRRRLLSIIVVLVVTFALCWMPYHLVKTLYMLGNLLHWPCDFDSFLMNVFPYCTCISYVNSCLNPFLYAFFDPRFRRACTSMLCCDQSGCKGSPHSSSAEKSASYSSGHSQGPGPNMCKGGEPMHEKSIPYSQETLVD

T2: human APJ receptor (human, UniProt P35414 1-380)
T2 sequence (looked up): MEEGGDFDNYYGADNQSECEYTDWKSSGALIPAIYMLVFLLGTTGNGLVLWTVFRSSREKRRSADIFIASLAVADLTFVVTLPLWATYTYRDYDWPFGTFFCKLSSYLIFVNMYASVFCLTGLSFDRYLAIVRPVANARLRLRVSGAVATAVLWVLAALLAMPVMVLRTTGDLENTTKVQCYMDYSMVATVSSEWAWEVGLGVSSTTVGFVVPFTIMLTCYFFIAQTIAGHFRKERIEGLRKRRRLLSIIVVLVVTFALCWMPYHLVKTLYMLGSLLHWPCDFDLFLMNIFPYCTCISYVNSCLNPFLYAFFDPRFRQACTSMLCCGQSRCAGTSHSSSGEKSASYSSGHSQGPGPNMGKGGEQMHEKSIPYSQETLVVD

B1: apelin polypeptide SEQ ID NO: 174 (peptide)
peptide: Tridecanoyl-[γGlu][AEEA][AEEA][hArg][dQ][hArg]P[dR][NMeL]SHKG[Oic][Phe(4-I)][dBip]-OH
SMILES: CCCCCCCCCCCCC(=O)N[C@@H](CCC(=O)NCCOCCOCC(=O)NCCOCCOCC(=O)N[C@@H](CCCCNC(=N)N)C(=O)N[C@H](CCC(N)=O)C(=O)N[C@@H](CCCCNC(=N)N)C(=O)N1CCC[C@H]1C(=O)N[C@H](CCCNC(=N)N)C(=O)N(C)[C@@H](CC(C)C)C(=O)N[C@@H](CO)C(=O)N[C@@H](Cc1c[nH]cn1)C(=O)N[C@@H](CCCCN)C(=O)NCC(=O)N1[C@H](C(=O)N[C@@H](Cc2ccc(I)cc2)C(=O)N[C@H](Cc2ccc(-c3ccccc3)cc2)C(=O)O)C[C@@H]2CCCC[C@@H]21)C(=O)O
B2: apelin polypeptide SEQ ID NO: 175 (peptide)
peptide: Tridecanoyl-[γGlu][AEEA][AEEA][hArg]Q[dR]P[dR][NMeL]SHKG[Oic][Phe(4-I)][dBip]-OH
SMILES: CCCCCCCCCCCCC(=O)N[C@@H](CCC(=O)NCCOCCOCC(=O)NCCOCCOCC(=O)N[C@@H](CCCCNC(=N)N)C(=O)N[C@@H](CCC(N)=O)C(=O)N[C@H](CCCNC(=N)N)C(=O)N1CCC[C@H]1C(=O)N[C@H](CCCNC(=N)N)C(=O)N(C)[C@@H](CC(C)C)C(=O)N[C@@H](CO)C(=O)N[C@@H](Cc1c[nH]cn1)C(=O)N[C@@H](CCCCN)C(=O)NCC(=O)N1[C@H](C(=O)N[C@@H](Cc2ccc(I)cc2)C(=O)N[C@H](Cc2ccc(-c3ccccc3)cc2)C(=O)O)C[C@@H]2CCCC[C@@H]21)C(=O)O
B3: apelin polypeptide SEQ ID NO: 16 (peptide)
peptide: Ac-[hArg][dR]Q[hArg]P[dR][NMeL]SHKG[Oic][Phe(4-I)]P[dBip]-OH
SMILES: CC(=O)N[C@@H](CCCCNC(=N)N)C(=O)N[C@H](CCCNC(=N)N)C(=O)N[C@@H](CCC(N)=O)C(=O)N[C@@H](CCCCNC(=N)N)C(=O)N1CCC[C@H]1C(=O)N[C@H](CCCNC(=N)N)C(=O)N(C)[C@@H](CC(C)C)C(=O)N[C@@H](CO)C(=O)N[C@@H](Cc1c[nH]cn1)C(=O)N[C@@H](CCCCN)C(=O)NCC(=O)N1[C@H](C(=O)N[C@@H](Cc2ccc(I)cc2)C(=O)N2CCC[C@H]2C(=O)N[C@H](Cc2ccc(-c3ccccc3)cc2)C(=O)O)C[C@@H]2CCCC[C@@H]21
B4: apelin polypeptide SEQ ID NO: 199 (peptide)
peptide: Tridecanoyl-[γGlu][AEEA][AEEA][hArg][dQ][hArg]P[dR][NMeL]SAKG[Oic][Phe(4-I)]P[dBip]-OH
SMILES: CCCCCCCCCCCCC(=O)N[C@@H](CCC(=O)NCCOCCOCC(=O)NCCOCCOCC(=O)N[C@@H](CCCCNC(=N)N)C(=O)N[C@H](CCC(N)=O)C(=O)N[C@@H](CCCCNC(=N)N)C(=O)N1CCC[C@H]1C(=O)N[C@H](CCCNC(=N)N)C(=O)N(C)[C@@H](CC(C)C)C(=O)N[C@@H](CO)C(=O)N[C@@H](C)C(=O)N[C@@H](CCCCN)C(=O)NCC(=O)N1[C@H](C(=O)N[C@@H](Cc2ccc(I)cc2)C(=O)N2CCC[C@H]2C(=O)N[C@H](Cc2ccc(-c3ccccc3)cc2)C(=O)O)C[C@@H]2CCCC[C@@H]21)C(=O)O
B5: apelin polypeptide SEQ ID NO: 201 (peptide)
peptide: Tridecanoyl-[γGlu][AEEA][AEEA][hArg][dQ][hArg]P[dR][NMeL]S[Tle]KG[Oic][Phe(4-I)]P[dBip]-OH
SMILES: CCCCCCCCCCCCC(=O)N[C@@H](CCC(=O)NCCOCCOCC(=O)NCCOCCOCC(=O)N[C@@H](CCCCNC(=N)N)C(=O)N[C@H](CCC(N)=O)C(=O)N[C@@H](CCCCNC(=N)N)C(=O)N1CCC[C@H]1C(=O)N[C@H](CCCNC(=N)N)C(=O)N(C)[C@@H](CC(C)C)C(=O)N[C@@H](CO)C(=O)N[C@H](C(=O)N[C@@H](CCCCN)C(=O)NCC(=O)N1[C@H](C(=O)N[C@@H](Cc2ccc(I)cc2)C(=O)N2CCC[C@H]2C(=O)N[C@H](Cc2ccc(-c3ccccc3)cc2)C(=O)O)C[C@@H]2CCCC[C@@H]21)C(C)(C)C)C(=O)O
B6: apelin polypeptide SEQ ID NO: 208 (peptide)
peptide: Tridecanoyl-[γGlu][AEEA][AEEA][hArg][dQ][hArg]P[dR][NMeL][βAla]HKG[Oic][Phe(4-I)]P[dBip]-OH
SMILES: CCCCCCCCCCCCC(=O)N[C@@H](CCC(=O)NCCOCCOCC(=O)NCCOCCOCC(=O)N[C@@H](CCCCNC(=N)N)C(=O)N[C@H](CCC(N)=O)C(=O)N[C@@H](CCCCNC(=N)N)C(=O)N1CCC[C@H]1C(=O)N[C@H](CCCNC(=N)N)C(=O)N(C)[C@@H](CC(C)C)C(=O)NCCC(=O)N[C@@H](Cc1c[nH]cn1)C(=O)N[C@@H](CCCCN)C(=O)NCC(=O)N1[C@H](C(=O)N[C@@H](Cc2ccc(I)cc2)C(=O)N2CCC[C@H]2C(=O)N[C@H](Cc2ccc(-c3ccccc3)cc2)C(=O)O)C[C@@H]2CCCC[C@@H]21)C(=O)O
B7: apelin polypeptide SEQ ID NO: 211 (peptide)
peptide: Tridecanoyl-[γGlu][AEEA][AEEA]RQRP[dR][NMeL]SHKG[Oic][Phe(4-I)]P[dBip]-OH
SMILES: CCCCCCCCCCCCC(=O)N[C@@H](CCC(=O)NCCOCCOCC(=O)NCCOCCOCC(=O)N[C@@H](CCCNC(=N)N)C(=O)N[C@@H](CCC(N)=O)C(=O)N[C@@H](CCCNC(=N)N)C(=O)N1CCC[C@H]1C(=O)N[C@H](CCCNC(=N)N)C(=O)N(C)[C@@H](CC(C)C)C(=O)N[C@@H](CO)C(=O)N[C@@H](Cc1c[nH]cn1)C(=O)N[C@@H](CCCCN)C(=O)NCC(=O)N1[C@H](C(=O)N[C@@H](Cc2ccc(I)cc2)C(=O)N2CCC[C@H]2C(=O)N[C@H](Cc2ccc(-c3ccccc3)cc2)C(=O)O)C[C@@H]2CCCC[C@@H]21)C(=O)O
B8: apelin polypeptide SEQ ID NO: 213 (peptide)
peptide: Tridecanoyl-[γGlu][AEEA][AEEA][dR]QRP[hArg][NMeL]SHKG[Oic][Phe(4-I)]P[dBip]-OH
SMILES: CCCCCCCCCCCCC(=O)N[C@@H](CCC(=O)NCCOCCOCC(=O)NCCOCCOCC(=O)N[C@H](CCCNC(=N)N)C(=O)N[C@@H](CCC(N)=O)C(=O)N[C@@H](CCCNC(=N)N)C(=O)N1CCC[C@H]1C(=O)N[C@@H](CCCCNC(=N)N)C(=O)N(C)[C@@H](CC(C)C)C(=O)N[C@@H](CO)C(=O)N[C@@H](Cc1c[nH]cn1)C(=O)N[C@@H](CCCCN)C(=O)NCC(=O)N1[C@H](C(=O)N[C@@H](Cc2ccc(I)cc2)C(=O)N2CCC[C@H]2C(=O)N[C@H](Cc2ccc(-c3ccccc3)cc2)C(=O)O)C[C@@H]2CCCC[C@@H]21)C(=O)O

Target: T1, rat APJ receptor
Assay: cell-based or functional assay

| Binder | EC50 Rat APJ Receptor |
| --- | --- |
| B1 | 16.5 nM |
| B2 | 8.54 nM |
| B3 | 0.729 nM |
| Tridecanoyl-[γGlu][AEEA][AEEA][hArg][dQ][hArg]P[dR][BLeu]SHKG[Oic][Phe(4-I)]P[dBip]-OH [apelin polypeptide SEQ ID NO: 180] | 27.3 nM |
| B4 | 32.4 nM |
| B5 | 182 nM |
| B6 | 104 nM |
| B7 | 6.29 nM |
| B8 | 1.17 nM |

Target: T2, human APJ receptor
Assay: cell-based or functional assay

| Binder | EC50 Human APJ Receptor |
| --- | --- |
| B1 | 3.6 nM |
| B2 | 1.32 nM |
| B3 | 0.375 nM |
| Tridecanoyl-[γGlu][AEEA][AEEA][hArg][dQ][hArg]P[dR][BLeu]SHKG[Oic][Phe(4-I)]P[dBip]-OH [apelin polypeptide SEQ ID NO: 180] | 10 nM |
| B4 | 8.48 nM |
| B5 | 49.4 nM |
| B6 | 28.9 nM |
| B7 | 1.9 nM |
| B8 | 0.647 nM |

Reference: patent US10941182 (Amgen, dated 2021)
